# Measurements published in publication doi:10.1101/2021.05.05.442785 (bioRxiv, 2021).
# B1: E. coli methionine S-adenosyltransferase (MAT), recombinant (enzyme)
# chain: AKHLFTSESVSEGHPDKIADQISDAVLDAILEQDPKARVACETYVKTGMVLVGGEITTSAWVDIEEITRNTVREIGYVHSDMGFDANSCAVLSAIGKQSPDINQGVDRADPLEQGAGDQGLMFGYATNETDVLMPAPITYAHRLVQRQAEVRKNGTLPWLRPDAKSQVTFQYDDGKIVGIDAVVLSTQHSEEIDQKSLQEAVMEEIIKPILPAEWLTSATKFFINPTGRFVIGGPMGDCGLTGRKIIVDTYGGMARHGGGAFSGKDPSKVDRSAAYAARYVAKNIVAAGLADRCEIQVSYAIGVAEPTSIMVETFGTEKVPSEQLTLLVREFFDLRPYGLIQMLDLLHPIYKETAAYGHFGREHFPWEKTDKAQLLRDAAGLK
# B2: S-adenosylmethionine lyase (SAMase) of bacteriophage T3, C-terminal His-tagged (enzyme, UniProt P07693 1-152, looked up)
# chain: MIFTKEPAHVFYVLVSAFRSNLCDEVNMSRHRHMVSTLRAAPGLYGSVESTDLTGCYREAISSAPTEEKTVRVRCKDKAQALNVARLACNEWEQDCVLVYKSQTHTAGLVYAKGIDGYKAERLPGSFQEVPKGAPLQGCFTIDEFGRRWQVQ
# Experiments:
# [1] = target: the molecule itself; experiment: cryo-EM structure
# [2] = target: B1; experiment: cryo-EM structure
Binder,stoichiometry N [1],binding result [2]
B1,4,–
B2,2,binds
